T1: full length human GP130 (L2V natural variant) on HEK293/Stat3-luc/gp130-2X Sort cells (human, UniProt P40189 23-918)
T1 construct: whole, on cells; Stably over-expressed on HEK293 cells, sorted twice for high expression; also called HEK293/gp130 2X Sort
T1 sequence (looked up): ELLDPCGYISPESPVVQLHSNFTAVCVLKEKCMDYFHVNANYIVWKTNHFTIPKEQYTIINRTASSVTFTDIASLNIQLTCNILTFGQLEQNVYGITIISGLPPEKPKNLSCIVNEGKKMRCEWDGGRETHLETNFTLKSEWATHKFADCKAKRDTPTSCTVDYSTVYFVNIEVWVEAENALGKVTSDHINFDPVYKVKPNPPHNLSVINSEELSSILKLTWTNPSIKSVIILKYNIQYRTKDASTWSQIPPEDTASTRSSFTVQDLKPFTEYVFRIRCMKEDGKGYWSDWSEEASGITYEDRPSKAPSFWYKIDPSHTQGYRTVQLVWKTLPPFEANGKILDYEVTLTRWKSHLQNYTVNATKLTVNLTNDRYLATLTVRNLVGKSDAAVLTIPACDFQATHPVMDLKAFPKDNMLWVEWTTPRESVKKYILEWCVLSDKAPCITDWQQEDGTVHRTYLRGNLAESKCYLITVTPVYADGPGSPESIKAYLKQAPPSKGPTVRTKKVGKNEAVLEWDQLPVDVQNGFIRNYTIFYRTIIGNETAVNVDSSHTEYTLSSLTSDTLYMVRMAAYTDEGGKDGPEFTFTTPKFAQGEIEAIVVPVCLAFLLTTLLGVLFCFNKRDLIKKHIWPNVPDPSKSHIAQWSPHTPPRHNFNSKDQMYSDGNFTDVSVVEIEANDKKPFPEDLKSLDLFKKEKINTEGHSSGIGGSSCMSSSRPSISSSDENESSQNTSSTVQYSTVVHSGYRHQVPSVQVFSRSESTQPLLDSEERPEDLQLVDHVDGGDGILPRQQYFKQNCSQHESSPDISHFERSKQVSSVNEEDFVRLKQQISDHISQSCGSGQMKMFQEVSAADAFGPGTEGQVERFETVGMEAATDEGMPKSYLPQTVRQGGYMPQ

T2: extracellular domain of human LEPR, GPI-anchored, on HEK293/hLEPR-GPI cells (human, UniProt P48357 22-839, GPI anchor at the C-terminus ; GPI anchor at the C-terminus, added through the carboxypeptidase M signal peptide. The N-terminal myc-myc tag is not written.)
T2 sequence: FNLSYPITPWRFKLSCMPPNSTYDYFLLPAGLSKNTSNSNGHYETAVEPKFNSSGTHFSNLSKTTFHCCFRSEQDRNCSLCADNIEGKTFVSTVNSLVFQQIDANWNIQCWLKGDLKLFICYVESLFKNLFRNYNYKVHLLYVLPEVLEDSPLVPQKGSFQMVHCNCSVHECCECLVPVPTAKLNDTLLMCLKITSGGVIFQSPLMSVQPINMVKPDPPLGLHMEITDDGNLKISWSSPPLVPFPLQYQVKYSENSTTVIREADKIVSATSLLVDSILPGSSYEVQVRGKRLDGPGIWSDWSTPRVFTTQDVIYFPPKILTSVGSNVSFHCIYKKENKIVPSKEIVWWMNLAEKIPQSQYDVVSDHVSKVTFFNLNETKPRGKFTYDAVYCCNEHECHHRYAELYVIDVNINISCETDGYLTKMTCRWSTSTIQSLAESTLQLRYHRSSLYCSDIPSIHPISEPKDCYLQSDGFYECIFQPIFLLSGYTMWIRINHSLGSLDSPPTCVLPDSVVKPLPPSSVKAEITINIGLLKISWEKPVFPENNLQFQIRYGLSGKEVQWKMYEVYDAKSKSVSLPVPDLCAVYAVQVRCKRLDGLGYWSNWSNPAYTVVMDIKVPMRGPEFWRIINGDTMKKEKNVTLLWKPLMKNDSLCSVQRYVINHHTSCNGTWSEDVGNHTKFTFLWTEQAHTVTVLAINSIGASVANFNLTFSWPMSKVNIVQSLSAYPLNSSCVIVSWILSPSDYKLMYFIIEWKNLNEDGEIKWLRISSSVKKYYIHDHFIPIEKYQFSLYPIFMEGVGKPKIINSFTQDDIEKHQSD


Legend:
[1] = biological target: T3, human GP130 delta D1-D3 expressed with a C-terminal myc-myc hexahistidine tag (human, UniProt P40189 329-619); assay: Luminex, myc-captured antigen
T3 construct: CHO supernatant, captured on anti-myc microspheres; also called human GP130 delta D1-D3-MMH
Protocol: (§1) Aliquots of microspheres with immobilized anti-myc monoclonal antibodies, prepared as described above, were added individually to 1 mL of the each of these protein supernatants and to 500 uL of purified GP130 protein. The microspheres were gently mixed, incubated for two hours at 25° C., washed twice with 1 mL of DBPS, centrifuged to remove the supernatant and finally resuspended in 1 mL of DPBS buffer. Forty eight μL of anti-myc IgG coupled microspheres from individual reactions with full length human GP130 and with each of the human GP130 domain proteins were withdrawn and mixed together in 3.6 mL of PBS+20 mg/mL BSA+0.05% sodium azide (blocking buffer).
(§2) From this mixed pool, 75 μL of microspheres were plated per well on a 96 well filter plate (Millipore, Cat. No: MSBVN1250) and mixed with 25 μL of individual anti-human GP130 monoclonal antibodies (0.5 or 5 μg/mL), incubated for two hours at 25° C. and then washed twice with 200 μL of DPBS with 0.05% Tween 20 (washing buffer). To detect and quantify the amounts of bound anti-GP130 antibody levels to individual microspheres, either 100 μL of 2.5 μg/mL R-Phycoerythrin conjugated goat F(ab′)2 anti-human kappa (Southern Biotech, Cat #2063-09) in blocking buffer, was added and incubated for 30 minutes at 25° C. After 30 minutes, the samples were washed twice with 200 μL of washing buffer and resuspended in 150 μL of wash buffer. The Median Fluorescence intensity (MFI) of the microspheres was measured in a Luminex Analyzer.

[2] = biological target: T4, human GP130 delta D1 expressed with a C-terminal myc-myc hexahistidine tag (human, UniProt P40189 124-619); assay: Luminex, myc-captured antigen
T4 construct: CHO supernatant, captured on anti-myc microspheres; also called human GP130 delta D1-MMH
Protocol: as §1, §2

[3] = biological target: T5, human GP130 extracellular domain expressed with a C-terminal myc-myc-hexahistidine tag (human, UniProt P40189 23-619); assay: SPR 25C, mAb captured, hGP130-MMH injected
T5 construct: monomeric; also called hGP130-mmH; hGP130-MMH
Protocol: (§3) Equilibrium dissociation constant (KD) for different GP130 reagents binding to purified anti-GP130 monoclonal antibodies were determined using a real-time surface plasmon resonance based Biacore 4000 biosensor. All binding studies were performed in 10 mM HEPES, 150 mM NaCl, 3 mM EDTA, and 0.05% v/v Surfactant Tween-20, pH 7.4 (HBS-ET) running buffer at 25° C. and 37° C. The Biacore sensor surface was first derivatized by amine coupling with a monoclonal mouse anti-human Fc antibody (GE, #BR-1008-39) to capture anti-GP130 monoclonal antibodies. […] Reagents tagged with “mmH” are monomeric, whereas reagents tagged with “mFc” are dimeric. Thus, for example, “hGP130-mmH” is also referred to as “monomeric human GP130,” and “hGP130-mFc” is also referred to as “dimeric human GP130.”
(§4) The association rate (k a) and dissociation rate (kd) were determined by fitting the real-time binding sensorgrams to a 1:1 binding model with mass transport limitation using Scrubber 2.0c curve-fitting software. Binding dissociation equilibrium constant (KD) and dissociative half-life (t ½) were calculated from the kinetic rates as: […]

[4] = biological target: T6, mouse GP130 extracellular domain expressed with a C-terminal myc-myc-hexahistidine tag (mouse, UniProt Q00560 23-617); assay: SPR
T6 construct: monomeric; also called mGP130-mmH; mGP130-MMH
Protocol: as §3, §4

[5] = biological target: T1, full length human GP130 (L2V natural …); assay: FACS, 200 nM antibody on HEK293/gp130 2X Sort cells
Protocol: (§5) For the FACS analysis, 0.5×10^6 cells/well of HEK293 parental cells, HEK293/Stat3-luc/gp130-2 X Sort cells, and HEK293/hLEPR-GPI cells, were incubated with 200 nM of the conventional antibodies against either GP130 or LEPR or with LEPRxGP130 bispecific antibodies, along with isotype control antibodies at 4° C. in PBS (without calcium and magnesium) containing 2% FBS.
(§6) Cells were fixed using BD CytoFix™ (Becton Dickinson, #554655) and analyzed on an IQue® (Intellicyt) Flow Cytometer. Unstained and secondary antibody alone controls were also tested for all cell lines. The results were analyzed using ForeCyt® (IntelliCyt) and FlowJo version 10 softwares to determine the geometric means of fluorescence for viable cells.

[6] = biological target: T2, extracellular domain of human LEPR, …; assay: FACS, 200 nM antibody on HEK293/hLEPR-GPI cells, no Leptin
Protocol: as §5, §6

[7] = biological target: T2, extracellular domain of human LEPR, …; assay: FACS, 200 nM antibody on HEK293/hLEPR-GPI cells, 1 µM Leptin
Protocol: as §5, §6

T6 sequence (Q00560 other isoform, or with tags, fused parts or gaps): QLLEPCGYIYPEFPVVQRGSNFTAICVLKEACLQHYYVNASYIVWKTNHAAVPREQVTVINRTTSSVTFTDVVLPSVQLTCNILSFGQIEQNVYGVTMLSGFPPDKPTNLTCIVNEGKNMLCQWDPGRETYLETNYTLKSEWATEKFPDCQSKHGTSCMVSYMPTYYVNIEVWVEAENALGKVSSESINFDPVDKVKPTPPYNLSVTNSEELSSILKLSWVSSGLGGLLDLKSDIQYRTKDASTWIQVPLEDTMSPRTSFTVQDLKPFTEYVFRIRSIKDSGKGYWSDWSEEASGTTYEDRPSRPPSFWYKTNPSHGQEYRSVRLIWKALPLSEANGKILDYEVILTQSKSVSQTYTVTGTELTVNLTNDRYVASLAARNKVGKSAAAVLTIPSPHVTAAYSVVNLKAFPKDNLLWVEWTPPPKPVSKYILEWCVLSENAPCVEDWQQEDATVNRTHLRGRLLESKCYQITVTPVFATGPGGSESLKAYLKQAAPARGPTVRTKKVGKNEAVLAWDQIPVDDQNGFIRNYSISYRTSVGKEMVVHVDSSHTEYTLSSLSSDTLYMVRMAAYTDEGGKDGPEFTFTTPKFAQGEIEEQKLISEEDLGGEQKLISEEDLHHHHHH
T4 sequence (P40189 other isoform, or with tags, fused parts or gaps mutant limits assumed): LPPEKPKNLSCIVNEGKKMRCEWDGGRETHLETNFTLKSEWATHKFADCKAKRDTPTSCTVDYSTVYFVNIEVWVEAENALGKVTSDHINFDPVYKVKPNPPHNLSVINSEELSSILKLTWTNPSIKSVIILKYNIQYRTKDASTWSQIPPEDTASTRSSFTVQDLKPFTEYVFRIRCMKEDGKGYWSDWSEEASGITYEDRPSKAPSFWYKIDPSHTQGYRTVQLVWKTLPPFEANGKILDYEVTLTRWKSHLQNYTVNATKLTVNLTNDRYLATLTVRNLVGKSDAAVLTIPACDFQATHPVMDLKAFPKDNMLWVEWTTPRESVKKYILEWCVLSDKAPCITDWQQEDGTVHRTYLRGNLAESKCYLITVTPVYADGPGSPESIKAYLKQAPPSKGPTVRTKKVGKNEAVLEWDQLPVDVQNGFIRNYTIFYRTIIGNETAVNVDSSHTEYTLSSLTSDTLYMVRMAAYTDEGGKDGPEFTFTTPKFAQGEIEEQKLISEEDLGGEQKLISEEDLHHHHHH
T5 sequence (P40189 other isoform, or with tags, fused parts or gaps): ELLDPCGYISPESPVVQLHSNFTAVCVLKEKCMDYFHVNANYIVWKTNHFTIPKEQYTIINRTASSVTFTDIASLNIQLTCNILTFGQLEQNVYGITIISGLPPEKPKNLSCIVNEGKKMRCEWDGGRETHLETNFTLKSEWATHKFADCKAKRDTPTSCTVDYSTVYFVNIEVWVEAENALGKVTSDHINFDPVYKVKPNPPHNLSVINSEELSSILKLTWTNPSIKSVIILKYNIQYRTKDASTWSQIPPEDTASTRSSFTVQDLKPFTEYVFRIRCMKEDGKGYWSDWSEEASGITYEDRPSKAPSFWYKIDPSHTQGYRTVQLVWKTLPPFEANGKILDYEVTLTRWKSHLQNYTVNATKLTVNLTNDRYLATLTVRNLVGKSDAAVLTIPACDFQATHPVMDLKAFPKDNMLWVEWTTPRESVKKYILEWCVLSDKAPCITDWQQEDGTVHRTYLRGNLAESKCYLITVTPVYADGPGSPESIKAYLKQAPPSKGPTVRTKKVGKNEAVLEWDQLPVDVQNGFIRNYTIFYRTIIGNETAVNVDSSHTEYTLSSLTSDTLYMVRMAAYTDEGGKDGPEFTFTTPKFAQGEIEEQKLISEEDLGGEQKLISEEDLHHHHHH
T3 sequence (P40189 other isoform, or with tags, fused parts or gaps mutant limits assumed): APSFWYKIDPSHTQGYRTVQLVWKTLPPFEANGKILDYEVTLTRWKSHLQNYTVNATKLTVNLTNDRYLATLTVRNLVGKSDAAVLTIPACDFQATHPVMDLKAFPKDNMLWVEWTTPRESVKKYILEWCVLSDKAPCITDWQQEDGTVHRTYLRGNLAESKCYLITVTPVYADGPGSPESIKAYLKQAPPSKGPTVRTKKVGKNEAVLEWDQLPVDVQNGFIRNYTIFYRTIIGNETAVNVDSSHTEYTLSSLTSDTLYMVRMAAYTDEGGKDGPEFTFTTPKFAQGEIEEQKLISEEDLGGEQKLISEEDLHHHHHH

Row | binding result [1] | binding result [2] | 100 nM Ag Bound (RU) [3] [RU] | Kd [3] [nM] | koff [3] [s⁻¹] | kon [3] [M⁻¹ s⁻¹] | t½ [3] [min] | binding result [4] | Binding Ratio, normalized to unstained sample (FL4-A) [5] [fold] | Binding Ratio, normalized to unstained sample (FL4-A) [6] [fold] | Binding Ratio, normalized to unstained sample (FL4-A) [7] [fold] | Binder
1 | no binding (tested: 0.5 or 5 µg/mL) | no binding (tested: 0.5 or 5 µg/mL) | 77 | 0.663 | 0.000459 | 693000 | 25 | no binding (tested: 100 nM) |  |  |  | MAb16659 (antibody, V domains shown) VH: QVQLVQSGPEVKKPGSSVKVSCKASGGTIDRNEITWVRQAPGQGLEWMGVIIPILGEAHYERKFQGRLTITMDESTSTAYMELSNLRSEDTAVYYCARERAARGYLDYWGQGTLVTVSS VL: not shown
2 | no binding (tested: 0.5 or 5 µg/mL) | no binding (tested: 0.5 or 5 µg/mL) | 44 | 23 | 0.000825 | 35900 | 14 | no binding (tested: 100 nM) |  |  |  | MAb16656 (antibody, V domains shown) VH: EVQLVESGGGLVQPGRSLRLSCAASGFTLDDFAMHWVRQAPGKGLEWVSGISWNSGNIGYADSVKGRFTISRDNARNSLYLQMNSLRAEDTALYYCTSGYYLYYAMDVWGQGTTVTVSS VL: not shown
3 | no binding (tested: 0.5 or 5 µg/mL) | no binding (tested: 0.5 or 5 µg/mL) | 51 | 2.19 | 0.000631 | 287000 | 18 | no binding (tested: 100 nM) |  |  |  | MAb16676 (antibody, V domains shown) VH: QVQLVQSGAEVMKPGASVKVSCRASGYTFSSYDINWVRQAPGQGLEWMGWISTATGNTNYPQKVQGRVTMTTDTSTNTAYMELRSLRSDDTAVYYCTREGNSKGWLDPWGQGTLVTVSS VL: not shown
4 | no binding (tested: 0.5 or 5 µg/mL) | no binding (tested: 0.5 or 5 µg/mL) | 20 | 411 | 0.0473 | 115000 | 0.2 | no binding (tested: 100 nM) |  |  |  | MAb16665 (antibody, V domains shown) VH: QVQLVESGGGVVQPGRSLRLACAASGFTFRSYGMHWVRQAPGKGLEWVAVIWYDGSNKYYTDSVKGRFTISRDNSKNTLYLQMNSLRAEDTAMYYCAIDKWATVTTYLFDYWGQGTLVTVSS VL: not shown
5 |  |  |  |  |  |  |  |  | 235 | 21 |  | mAb16683 (antibody, V domains shown, Conventional anti-GP130 antibody; also called mAb16683 (anti-GP130 mAb)) VH: QVQLVESGGGLVKPGGSLRLSCAASGFTFSDYYMTWIRQTPGKGLDWVSYISSSGTNKYNADSVKGRFTISRDNAKNSLYLQMNSLRAEDTAVYYCVRDPPWGMDVWGQGTTVTVSS VL: not shown
6 |  |  |  |  |  |  |  |  |  | 4710 | 4250 | mAb18445 (antibody, V domains shown, Conventional anti-LEPR antibody; also called mAB18445 (anti-LEPR mAb)) VH: QVQLQESGPGLVKPSQTLSLTCTVSGGSISSGGDYWSWIRQLPGKGLEWIGYIYYSGSAYYNPSLKSRGTISIDTSKNQFSLKLTSVTAADTAVYFCVKLRFLEWFLGGWFGPWGQGTLVTVSS VL: not shown
7 |  |  |  |  |  |  |  |  |  | 7020 | 6390 | mAb18446 (antibody, V domains shown, Conventional anti-LEPR antibody; also called mAB18446 (anti-LEPR mAb)) VH: EVQLVESGGGLVQPGGSLRLSCAASGFTFSNYGMTWVRQAPGKGLEWVSAITGGGGSTYYSNSVKGRFTISRDNSKNTVYLRMNSVRAEDTAVYYCAKYKWNFVDDWGQGTTVTVSS VL: not shown
8 | no binding (tested: 0.5 or 5 µg/mL) | no binding (tested: 0.5 or 5 µg/mL) | 14 | 2.35 | 0.00164 | 698000 | 7 | no binding (tested: 100 nM) |  |  |  | MAb16664 (antibody, V domains shown) VH: QVQLVQSGTEVKKPGSSVKVSCKASGGTFSTYPINWVRQAPGQGLEWMGGIIPIFGTASYAQKFQGRVAITTDESTSTAYMELNSLRSEDTAVYYCARERPNWGSNDYWGQGTLVTVSS VL: not shown
